Measured values taken from patent publication US20100292083A1 (Ablynx, published 2010).
Changes are numbered by the printed parent chain.

B1: 32C9PMP2_C9 (VHH, name in Kabat numbering)
VHH: EVQLVESGGGLVQAGGSLRLSCAASGFTFDDYDIGWFRQAPGKGREGVSGISSSDGNTYYADSVKGRFTISSDNAKNTLYLQMNSLKAEDTAVYYCAREPPDSSWYLDGSPEFFKYWGQGTLVTVSS
notes: Humanized 32C9 variant
B2: 32C9PMP2_E6 (VHH, name in Kabat numbering)
VHH: B1 VHH with A14P, D30S, G44E, S72R, L79V
notes: Humanized 32C9 variant
B3: 32C9PMP1_H8 (VHH, name in Kabat numbering)
VHH: B1 VHH with F37V, S72R, K87R, A88P
notes: Humanized 32C9 variant
B4: 32C9PMP1_A3 (VHH, name in Kabat numbering)
VHH: B1 VHH with D30S, F37V, S72R, L79V, L122Q
notes: Humanized 32C9 variant
B5: 32C9PMP2_F5 (VHH, name in Kabat numbering)
VHH: B1 VHH with A14P, G44E, G47W
notes: Humanized 32C9 variant
B6: 32C9PMP2_A5 (VHH, name in Kabat numbering)
VHH: B1 VHH with A14P, F37V, L79V, K87R, A88P
notes: Humanized 32C9 variant
B7: 32C9PMP1_G8 (VHH, name in Kabat numbering)
VHH: B1 VHH with A14P, D30S, L79V
notes: Humanized 32C9 variant
B8: 32C9PMP2_B7 (VHH, name in Kabat numbering)
VHH: B1 VHH with D30S, S72R
notes: Humanized 32C9 variant
B9: 32C9PMP1_H1 (VHH, name in Kabat numbering)
VHH: B1 VHH with A14P, D30S, F37V, S72R, L79V, L122Q
notes: Humanized 32C9 variant
B10: 32C9PMP2_C4 (VHH, name in Kabat numbering)
VHH: B1 VHH with G44E, G47W, L79V
notes: Humanized 32C9 variant
B11: 32C9PMP2_C12 (VHH, name in Kabat numbering)
VHH: B1 VHH with F37V, G44E, G47W
notes: Humanized 32C9 variant
B12: 32C9PMP2_B4 (VHH, name in Kabat numbering)
VHH: B1 VHH with A14P, G44E, R45L, L79V, K87R, A88P, L122Q
notes: Humanized 32C9 variant
B13: 32C9PMP1_H6 (VHH, name in Kabat numbering)
VHH: B1 VHH with A14P, G44E, R45L, S72R, L122Q
notes: Humanized 32C9 variant
B14: 32C9PMP1_G3 (VHH, name in Kabat numbering)
VHH: B1 VHH with A14P, D30S, S72R, K87R, A88P, L122Q
notes: Humanized 32C9 variant
B15: 32C9PMP1_D7 (VHH, name in Kabat numbering)
VHH: B1 VHH with A14P, F37V, G44E, G47W, S72R
notes: Humanized 32C9 variant
B16: 32C9PMP1_A4 (VHH, name in Kabat numbering)
VHH: B1 VHH with A14P, G44E, G47W, K87R, A88P, L122Q
notes: Humanized 32C9 variant
B17: 32C9PMP2_D8 (VHH, name in Kabat numbering)
VHH: B1 VHH with A14P, D30S, G44E, S72R, L79V, L122Q
notes: Humanized 32C9 variant
B18: 32C9PMP1_A11 (VHH, name in Kabat numbering)
VHH: B1 VHH with A14P, D30S, F37V, G44E, G47W, L79V
notes: Humanized 32C9 variant
B19: 32C9PMP1_A2 (VHH, name in Kabat numbering)
VHH: B1 VHH with A14P, F37V, G44E, G47W, L79V
notes: Humanized 32C9 variant
B20: 32C9PMP1_B4 (VHH, name in Kabat numbering)
VHH: B1 VHH with A14P, D30S, L122Q
notes: Humanized 32C9 variant
B21: 32C9PMP2_D9 (VHH, name in Kabat numbering)
VHH: B1 VHH with A14P, D30S, L79V, K87R, A88P
notes: Humanized 32C9 variant
B22: 32C9PMP2_A10 (VHH, name in Kabat numbering)
VHH: B1 VHH with D30S, F37V, S72R, L122Q
notes: Humanized 32C9 variant
B23: 32C9PMP2_E7 (VHH, name in Kabat numbering)
VHH: B1 VHH with D30S, G44E, G47W, S72R, K87R, A88P
notes: Humanized 32C9 variant
B24: 32C9PMP1_F9 (VHH, name in Kabat numbering)
VHH: B1 VHH with A14P, D30S, G44E, G47W, S72R, L79V
notes: Humanized 32C9 variant
B25: 32C9PMP2_C10 (VHH, name in Kabat numbering)
VHH: B1 VHH with A14P, F37V
notes: Humanized 32C9 variant
B26: 32C9PMP2_F2 (VHH, name in Kabat numbering)
VHH: B1 VHH with F37V, G44E, G47W, K87R, A88P
notes: Humanized 32C9 variant
B27: 32C9PMP1_B11 (VHH, name in Kabat numbering)
VHH: B1 VHH with D30S, S72R, L79V, L122Q
notes: Humanized 32C9 variant
B28: 32C9PMP2_D5 (VHH, name in Kabat numbering)
VHH: B1 VHH with A14P, F37V, G44E, R45L, S72R, L79V
notes: Humanized 32C9 variant
B29: 32C9PMP1_D5 (VHH, name in Kabat numbering)
VHH: B1 VHH with A14P, F37V, K87R, A88P
notes: Humanized 32C9 variant
B30: 32C9PMP1_G9 (VHH, name in Kabat numbering)
VHH: B1 VHH with A14P, F37V, G44E, R45L, L79V
notes: Humanized 32C9 variant
B31: 32C9PMP1_E2 (VHH, name in Kabat numbering)
VHH: B1 VHH with D30S, F37V, S72R
notes: Humanized 32C9 variant
B32: IL6R65PMP13B2 (VHH)
VHH: EVQLVESGGGLVQPGGSLRLSCAASGTTFKVNIMAWYRQAPGKGRELVAAIITNGSTTYADSVKGRFTISRDNAKNTLYLQMNSLRPEDTAVYYCAFVTTNSDYDLGRDYWGQGTLVTVSS
B33: IL6R65PMP13B3 (VHH)
VHH: B32 VHH with R19H, T28I, V31I, I33V, N54D
B34: IL6R65PMP18E11 (VHH)
VHH: B32 VHH with K30R, V31I, I33V, A50G, T58S
B35: IL6R65PMP13F10 (VHH)
VHH: B32 VHH with T27S, T28V, V31I, I33A, A35G, A50G, I51L, T53S, N54A, T58N
B36: IL6R65PMP18B1 (VHH)
VHH: EVQLVESGGGLVQPGGSLRLSCAASGSIFKVNAMGWYRQAPGKGRELVAGIISGGSTNYADSVKGRFTISRDNAKNTLYLQMNSLRPEDTAVYYCAFITADTDYDLGKRYWGQGTLVTVSS
notes: CDR3 library clone
B37: IL6R65PMP18G7 (VHH)
VHH: B32 VHH with I33V, A50G, N54G
B38: IL6R65PMP13D3 (VHH)
VHH: B32 VHH with S25N, I33V, A50G, I51V, N54G, S56T, T58N
B39: IL6R65PMP18G8 (VHH)
VHH: B32 VHH with V31I, I33V, A50G, N54G, S56T
B40: IL6R65PMP13H4 (VHH)
VHH: B32 VHH with T27S, T28A, I33V, A50G, I51V, N54D, T58N
B41: IL6R65PMP18G12 (VHH)
VHH: B32 VHH with T27S, T28I, V31I, I33V, T53N, N54S, S56T, T58S
B42: IL6R65PMP19H2 (VHH)
VHH: B36 VHH
notes: CDR3 library clone
B43: IL6R65PMP19A4 (VHH)
VHH: B36 VHH with A100T, D103N, Y110S
notes: CDR3 library clone
B44: IL6R65PMP13D2 (VHH)
VHH: B32 VHH with I33V, T53N, N54D
B45: IL6R65PMP16H6 (VHH)
VHH: EVQLVESGGGLVQPGGSLRLSCAASGSVFRINAMAWYRQAPGKGRELVAGFVTGGSSNYADSVKGRFTISRDNAKNTLYLQMNSLRPEDTAVYYCAFVTTNSDYDLGRDYWGQGTLVTVSS
B46: IL6R65PMP13F5 (VHH)
VHH: B32 VHH with K30R, V31I, I33V, A50G, T58S
B47: IL6R65PMP13G5 (VHH)
VHH: B32 VHH with T28I, V31I, T53N, N54S, T58S
B48: IL6R65PMP19H7 (VHH)
VHH: B36 VHH with D103E, Y110F
notes: CDR3 library clone
B49: IL6R65PMP18G11 (VHH)
VHH: B32 VHH with T27S, T28I, V31I, I33V, T53N, N54G, S56T, T58S
B50: IL6R65PMP13F3 (VHH)
VHH: B32 VHH with V31I, I33V, N54G, S56T

The binders below were run against T1, human IL6R (human, UniProt P08887 20-358, limits assumed) (assay: SPR (Biacore), periplasmic extract).
T1 construct: Antigen of the Biacore experiments; the construct is not described (biotinylated IL6R from Peprotech was used for the selections)
T1 sequence (looked up): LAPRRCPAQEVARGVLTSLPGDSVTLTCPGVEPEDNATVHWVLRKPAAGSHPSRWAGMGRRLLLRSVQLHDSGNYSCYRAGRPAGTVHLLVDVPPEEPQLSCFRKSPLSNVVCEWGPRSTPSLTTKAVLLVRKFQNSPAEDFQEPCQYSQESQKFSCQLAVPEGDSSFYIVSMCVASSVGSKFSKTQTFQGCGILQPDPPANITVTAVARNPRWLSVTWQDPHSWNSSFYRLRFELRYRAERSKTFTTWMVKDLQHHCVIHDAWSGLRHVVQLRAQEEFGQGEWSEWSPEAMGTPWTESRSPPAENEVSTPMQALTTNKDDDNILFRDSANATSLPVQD

Binder	binding result
B1	no binding
B2	no binding
B3	no binding
B4	no binding
B5	no binding
B6	no binding
B7	no binding
B8	no binding
B9	no binding
B10	no binding
B11	no binding
B12	no binding
B13	no binding
B14	no binding
B15	no binding
B16	no binding

Binder	binding result
B17	no binding
B18	no binding
B19	no binding
B20	no binding
B21	no binding
B22	no binding
B23	no binding
B24	no binding
B25	no binding
B26	no binding
B27	no binding
B28	no binding
B29	no binding
B30	no binding
B31	no binding

Biological target: T1, human IL6R
Assay: SPR (Biacore), periplasmic extract
Remark: another data set of the same source
Method: Selection outputs were analyzed by picking individual colonies and growing them overnight in 1 ml 2×YT (Yeast Tryptone) medium+100 ug/ml Carbenicillin at 37 C. Nanobody containing periplasmic extracts were prepared, diluted 1/10 in PBS and subsequently tested for antigen binding in ELISA. Clones with the highest ELISA signals were sequenced and analyzed on Biacore. […] The off-rate of the best clone from the CDR3 library was 7×10e-4 s-1.

Binder	koff
B32	0.0014 s⁻¹
B33	0.00076 s⁻¹
B34	0.00027 s⁻¹
B35	0.0011 s⁻¹
B36	0.00072 s⁻¹
B37	0.0003 s⁻¹
B38	0.00048 s⁻¹
B39	0.00023 s⁻¹
B40	0.00052 s⁻¹
B41	0.00034 s⁻¹
B42	0.00074 s⁻¹
B43	0.00089 s⁻¹
B44	0.0011 s⁻¹
B45	0.00032 s⁻¹
B46	0.00037 s⁻¹
B47	0.00069 s⁻¹
B48	0.0011 s⁻¹
B49	0.00033 s⁻¹
B50	0.00046 s⁻¹
